Source: the DeepSol protein solubility set

Assay: soluble on expression in E. coli; label from the status in PepcDB or PDB records

In the case of “MTVLKLSHWRVLAELADGLPQHVSQLARMADMKPQQLNGFWQQMPAHIRGLLRQHDGYWRLVRPLAVFDAEGLRELGERSGFQTALKHECASSNDEILELARIAPDKAHKTICVTHLQSKGRGRQGRKWSHRLGECLMFSFGWVFDRPQYELGSLSPVAAVACRRALSRLGLDVQIKWPNDLVVGRDKLGGILIETVRTGGKTVAVVGIGINFVLPKEVENAASVQSLFQTASRRGNADAAVLLETLLVELDAVLLQYARDGFAPFVAEYQAANRDHGKAVLLLRDGETVFEGTVKGVDGQGVLHLETAEGKQTVVSGEISLRSDDRPVSVPKRRDSERFLLLDGGNSRLKWAWVENGTFATVGSAPYRDLSPLGAEWAEKADGNVRIVGCAVCGEFKKAQVQEQLARKIEWLPSSAQALGIRNHYRHPEEHGSDRWFNALGSRRFSRNACVVVSCGTAVTVDALTDDGHYLGGTIMPGFHLMKESLAVRTANLNRHAGKRYPFPTTTGNAVASGMMDAVCGSVMMMHGRLKEKTGAGKPVDVIITGGGAAKVAEALPPAFLAENTVRVADNLVIYGLLNMIAAEGREYEHI”, the “soluble on expression in E. coli” value was “not soluble”.

With “MGSDKIHHHHHHMTVSKTKAKLVDVARQLFAKMGVENTTMNDIALASKKGRRTLYTYFKSKDEIYLAVVESELDILSDMMKRVADKDISPDKKIIEMIYTRLDAVKEVVYRNGTLRANFFRDIWRVEKVRKRFDAKEMQLFKSVLKEGQDKGVFHVDDVEMTAALVHYCVKGIEVPYIRGHIGANLDMETRKRYVANIVFGALHRTEINQ” the “soluble on expression in E. coli” value was “not soluble”.

In the case of “MSQSTSSEGSGPAAKIARKNSPENDPETAEMFIVDEITDMRYSTTCRQLQFLVKWAIPGSEMTWQPLDDFPFGLNHFSILDYRKDHEEKYEACLQKQRRSKVMKDDDRSWNVSRNSNRSRNRSKSSSKPAQRTEPMTQREKFDAILQISEISLEKQYKLTNKKVPRRSQFTDPDAPKKKSKGARHYRDQNLKTLFKSSLIRKYRKPQESDDDLEPDVAQDSPENTPAPPTKSPESSGFSENLENLGANTPSPSPDFEEEHLEKKPETGNLTENRPKRVYSHETAESMENYAKLLLYTAFDTKSWETLGGHIKNGFRLSFVCSNGLTIIENVVELNKNLNKFSDSRESRMVADLFELLLKKGVEFDEKTLPPTMCAAVRSTRYDIRRDFRCLHNQYIDKRPRMCEWFSATGGGGSCGTTEICTFWNNDAGYLPNTHQRSKFHVDLSEFTGNNLGLLAFSMAWHEDFIDNNSGGPEIVKNNRFNAHIDVPCFTLWMNGKMCEKLENSHGLSIFRPLGTVLDVNELKIKITEHSSRFVAILPVFNLNSDWKNCFFPLENQ”, the “soluble on expression in E. coli” value was “not soluble”.

For “DNIITGRMKPLHWREMKEVDPNRVTLIDARPRQAYEVEHIPGAISMPVEEIRARIGEIPHDKPIYVYCAVGMRGYFASNILRQCGFSNVRNLIGGYRLYSTITADYSSAGQPATAQLPAKDSPSSHTQVPE”, the “soluble on expression in E. coli” value was “not soluble”.

In the case of “SISTARVPADKPVRIAFSLNDASDDTPPEDSIPLVFPELDQQLQPLPPCHDSEESMEVFKQHCQIAEEYHEVKKEITLLEQRKKELIAKLDQAEKEKVDAAELVREFEALTEENRTLRLAQSQCVEQLEKLRIQYQKRQGSS”, the “soluble on expression in E. coli” value was “soluble”.

In the case of “PIELLPETPSQTAGPYVHIGLALEAAGNPTRDQEIWNRLAKPDAPGEHILLLGQVYDGNGHLVRDSFLEVWQADANGEYQDAYNLENAFNSFGRTATTFDAGEWTLHTVKPGVVNNAAGVPMAPHINISLFARGINIHLHTRLYFDDEAQANAKCPVLNLIEQPQRRETLIAKRCEVDGKTAYRFDIRIQGEGETVFFDF”, the “soluble on expression in E. coli” value was “soluble”.

For “MSLIKLLALDMDGTLLNEAKEIPQAHITAIHKAIEKGVKLVLCTGRPLFGVLPYYKKLELDLQNEYIIVNNGCSTHQTSDWGLVDWQELSPADIEYLYDLAEKSDVQLTLFDESHYFVLGGKPNQVIENDAKLVFSDLTEISLEEATSGKFRMFQGMFLGTKEQTDDFEQRFAEELCQRFSGVRSQPVIYEAMPLGTTKATALSRLAEILKIDSSEIMAMGDANNDIEMLQFAGLGIAMGNASDYVKSLADAVTSSNEEDGVARAIEKYILEGHHHHHH”, the “soluble on expression in E. coli” value was “soluble”.

For “MSTKYLFIYNEIREKILCNKYTMNEQLPDEMTLAKQFACSRMTIKKALDLLVSEGLIFRKRGQGTFVLSRGSSKRKLIVPERDIRGLTKISEDAHSTIDSRIIHFKLEFANEFLAEKLQVALQSPVYNIYRLRIIDGKPYVLEQTYMSTDVIPGITEDILQKSIYNYIEGKLGLHIASATKILRASSSSENEQHYLQLLPTEPVFEVEQVAYLDNGTPFEYSISRHRYDLFEFNSFALRHSS”, the “soluble on expression in E. coli” value was “not soluble”.

In the case of “MSDPYMPLTSVRSGAGFEAAKGVHGLTVQIANVYFIQLPSEPHSFVLIDAGMPQSAGVIVNEAKQRFGEGFQLKAIILTHGHFDHIGAIEEILEHWDVPVYIHSREMPYVTGKEDYPPARPDSKSGLVAKLSPLFPRHSIDISSHVQALPEDGSVPFLDEWMWIATPGHTPGHISLFRDDGRVLVAGDAVITVEQEKMADVLIQKQELHGPPAYFTPDTETAAESILKLAGLEPEALLTGHGIPMTGKNFRSDLTELANRLSSILEHHHHHH”, the “soluble on expression in E. coli” value was “soluble”.

With “MRKQKNRQRNRGRSQEIALFLDPLATSLKWLQAGRQITTEAFHNPEAGENQYRLISSGFRLSIFGRGAVRQGMNKERFTILLGGDVAVSDRLKRAVVNSRVIAADGGMRHATPLGLTPELWVGDFDSANQELLDAWPDVTRQPYPAAKAVTDGEIAVSEALLRGAHSLLLVGALGGARSDHALQHLLYAVALAERGFEVTLTSGEEEARPLLAGSLAIDLPAGSLFSVAGFTALEGLDIGNVRYPLNDFALAFGSSRTISNVANGGPVHFSLKSGKAIVLARPYDLTGALEHHHHHH” the “soluble on expression in E. coli” value was “soluble”.

In the case of “WVFFVEDGETIRVRLRSKGPVINTVAMEHNGGGHPMAAGAKAKSWEETDKIV”, the “soluble on expression in E. coli” value was “soluble”.

In the case of “MAHHHHHHMAANCIFCKIIKGDIPCAKVAETSKALAFMDINPLSRGHMLVIPKEHASCLHELGMEDAADVGVLLAKASRAVAGPDGSMQYNVLQNNGSLAHQEVPHVHFHIIPKTDEKTGLKIGWDTVKVASDELAEDAKRYSEAIAKI”, the “soluble on expression in E. coli” value was “soluble”.

In the case of “MGSSHHHHHHHSSGRENLYFQGHMEGVRWAFSCGTWLPSRAEWLLAVRSIQPEEKERIGQFVFARDAKAAMAGRLMIRKLVAEKLNIPWNHIRLQRTAKGKPVLAKDSSNPYPNFNFNISHQGDYAVLAAEPELQVGIDIMKTSFPGRGSIPEFFHIMKRKFTNKEWETIRSFKDEWTQLDMFYRNWALKESFIKAIGVGLGFELQRLEFDLSPLNLDIGQVYKETRLFLDGEEEKEWAFEESKIDEHHFVAVALRKPDGSRHQDVPSQDDSKPTQRQFTILNFNDLMSSAVPMTPEDPSFWDCFCFTEEIPIRNGTKSLESG”, the “soluble on expression in E. coli” value was “soluble”.

With “MGSDKIHHHHHHMKSIEELYKRALELKNKGMSDKEISTELHLSVNTVTWLLSKEFLKEGAVQDVKIGWRSVGVFGSRIISIAEIMSDIIREEMNKNSFEVDSILGIAINGIPYATLVSYLMDKELIVYRPHPARKEGVFSSNFASVEGKRVVIIDDVASTGETMRRTITDVTKEGGKPVLCVLLASKMSVNDLNGVPVRSLIRTQVIGGS” the “soluble on expression in E. coli” value was “not soluble”.

For “MSLENIIARRYAKAIASRADINDFYQNLCILNSAFVLPKFKNIIESNEIKKERKMEFLDSFFDIKNSSFQNFLRLLIENSRLECIPQIVKELERQKAFKENIFVGIVYSKEKLSQENLKDLEVKLNKKFDANIKLNNKISQDDSVKIELEELGYELSFSMKALQNKLNEYILKIEGHHHHHH”, the “soluble on expression in E. coli” value was “not soluble”.

In the case of “MAHHHHHHMQKPIMIVGTSAPRRREIAQRHFGATYDLVYLSPDIDEKQIRDSDPFTLTRAIAQAKMDELRVKVARDAALQDRVAKRPGSVAITFDQVVDYHGEIREKPASEQQAAAFIHAYSNDNLGTVMTTVLYDFGTGKQVSMPNTTLTFYGEIPDETVARVVERGACLRTAGGFVVEDVDMKRCEIKIDPGTEEEVCGFCEKSVRALLEGVQRPWVQSDHCSDGKR”, the “soluble on expression in E. coli” value was “not soluble”.

For “MSYSPSLKEIIAILQKYTSKNYQSNCKTRPDGKLELSLNGVFEEIVKTPGKTRYVTHKQLDQKLKDFKQDLMVELHDTFATKTDLKESEARINQKLEALIQIVMVQGEQIKVHGEQINKLTQAVEKQGEKIEAQGQQIQKVNETLNFVVESLGSIHKRLDSMEGRLDSMENRLDKLESKLEHHHHHH”, the “soluble on expression in E. coli” value was “not soluble”.

In the case of “MSPQYDAIIVGGGHNGLTCGAYLARAGVKVLVVERQPMVGGAAVTGEIAPGYRSSLASYYQGLLQPKVILDLELQKYGFEVIPAAPTVFALEGGRTFTLWDDPEKFAAEIAKFSNVDGAAYAGYRAHMLKIAPHMKQLLWEVPVDPASGKIRDLKRLAGFVWRFRKVGPQFYDIYNLLTMSAWDYLSRWFTSDEVKLVLGFFAGGGGANSSLKTPGSAYMLARGIVRDGGTAAGPAGFMKGGMGAISEAIRRSGEAHGMEVRTACPVERILVENGRAVGVRLEGGEEIRSKIVIANATARTTFTKLLDPAELPEEFNRDIRNIRCESTVFRVNLALSALPEAPVFGQTNPQGSIVPQMTVAPNVAYMERAWHQAQGGEIAEAPFLIVKVPSMVDPTLAPEGHHIMNVFGGHAPYTLARGDWDSRREELWGRVLAVLKTQFPDIESRILHRQIMTPLDLERIFDLPNGHVHHGEISADQMFFRRPSPQFADYRSPVDRLYQASASVHPGGGVTGVPGHNAAKVILEDRRKWSLEHHHHHH”, the “soluble on expression in E. coli” value was “soluble”.

In the case of “MGSDKIHHHHHHMTSFVLSSKNAFDYLILQGLCTQNEKSLSKIELVPAKNFNLLISLPDNRKLLIKQEPHKREGKTSGEFLKEWRVHNFLQTFPELSDIRSYFSEAVHFDPENSIFVFNYLTNYRDLMDFYVERNLKLFPIKIAMLVGTTLASIHRLSIDRQEYQEFFLNKNIFGQGIPNLNLGMDRVSPAVFGKLPTDGLKFLSLYQRYDSLGQAIAELNNALIPCCLTHNDLKLNNILLSLNWEEAAFNESSSDESIIRLIDWERGAWGDPASDLGTLIASYLQLWLHSMITSKTMAIQESLRLATTPLHLLQPSIRELVIAYLSAFPEIIELHPDFLQRVMQFCGFALIKSIQAKLQHEKTFGNKGICILQVAKSLLCRPEASIPTIFGVDASDLSPINLSPASK”, the “soluble on expression in E. coli” value was “not soluble”.

In the case of “MSLVPARVFSCTILVDFQTEDQDTMCNLLRVQWTITPRTAPQPWLACNGCGDLRAFQASDKIRLNANGRKLDAWLIYRCLICDKSWNRPIFERQNVCDISPPVLEALQCNDPQWIRAETFNLEALRRKSQRIDEFPDFDIEKRIRDEPTDWAAAEIDLTVPFPASIRLDRLLASELGLSRSMLQKLHDGGQIRAQSDLLRRRLRNGTRIVIECGDGLDRERFWKPAVRGLEGHHHHHH”, the “soluble on expression in E. coli” value was “not soluble”.

For “MGSDKIHHHHHHMADAPIDIFQSILSRKSIRAFTDQPVTQETIREILKLAARAPSGTNLQPWQVIVLTGKILQKVGQELSQLVLSGIKGEREYHYYPRQWREPYLSRRRKVGLDLYKSLGIQKGDQEKMLHQKAKNFLFYGAPVGLLFTIDHDMEMGSWLDLGMFMQTIMLAARGFGLDTCAQAAFADYHKQIRSLLSVPSDRHIICGMALGYRDMNAPENNFETEREPIDNFVHFIKSYP”, the “soluble on expression in E. coli” value was “not soluble”.

In the case of “SNAVFGVKEWECEVLSNKNVSTFIKEFVVKLPEGETMNFKSGSYAQIKIPKYNIRYADYDIQDRFRGDWDKMDAWSLTCKNEEETVRAYSMANYPAEGNIITLNVRIATPPFDRAANKWKAGIKPGISSSYIFSLKPGDKVMMSGPYGDFHIQDTDAEMLYIGGGAGMAPLRAQILHLFRTLKTGRKVSYWYGARSKNEIFYEEDFREIEREFPNFKFHIALSDPQPEDNWTGYVGFIHQVIYDNYLKDHDAPEDIEYYMCGPGPMANAVKGMLENLGVPRNMLFFDDFG”, the “soluble on expression in E. coli” value was “soluble”.

With “MLRRGLSRPEPRLLSKRYLSSATGGGSAGTTEGGSSETTPLRPRPNALTDEIIRVDHAGELGADRIYAGQMAILGNGPLGKTIGHMWEQEKEHRKQFEQLIQQHRVRPTIMTPIWNVAGFVLGAGTALMGEKAAMACTVAVETVIVEHYNDQLRQIMEAPNPDKELLATITKFRDEEQEHHDTGIDHGAEQAPFYQAMTEVIKFGCKTAIAISKKILEHHHHHH” the “soluble on expression in E. coli” value was “not soluble”.
